T1: FUT9 (Homo sapiens, UniProt Q9Y231)
T1 construct: purchased Bio-Techne (Minneapolis, MN)
T1 sequence (Q9Y231 1-359): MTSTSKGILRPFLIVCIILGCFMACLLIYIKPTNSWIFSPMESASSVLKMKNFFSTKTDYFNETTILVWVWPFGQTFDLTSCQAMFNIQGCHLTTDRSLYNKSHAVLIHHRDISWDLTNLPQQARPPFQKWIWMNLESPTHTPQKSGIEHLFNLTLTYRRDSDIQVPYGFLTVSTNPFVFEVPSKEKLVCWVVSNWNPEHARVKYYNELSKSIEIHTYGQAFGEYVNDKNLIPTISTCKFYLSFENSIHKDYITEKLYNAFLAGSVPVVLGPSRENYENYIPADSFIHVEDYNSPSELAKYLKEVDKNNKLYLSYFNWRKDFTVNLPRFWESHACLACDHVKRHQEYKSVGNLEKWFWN

B1: α-2,3-sialyltransferase 1 (protein, UniProt Q11201 1-340, looked up)
CMP-N-acetylneuraminate-beta-g …: MVTLRKRTLKVLTFLVLFIFLTSFFLNYSHTMVATTWFPKQMVLELSENLKRLIKHRPCTCTHCIGQRKLSAWFDERFNQTMQPLLTAQNALLEDDTYRWWLRLQREKKPNNLNDTIKELFRVVPGNVDPMLEKRSVGCRRCAVVGNSGNLRESSYGPEIDSHDFVLRMNKAPTAGFEADVGTKTTHHLVYPESFRELGDNVSMILVPFKTIDLEWVVSAITTGTISHTYIPVPAKIRVKQDKILIYHPAFIKYVFDNWLQGHGRYPSTGILSVIFSMHVCDEVDLYGFGADSKGNWHHYWENNPSAGAFRKTGVHDADFESNVTATLASINKIRIFKGR
notes: recombinant human sialyltransferase, Core-1 O-glycan specific
B2: α-2,6-sialyltransferase 1 (protein, UniProt P15907 1-406, looked up)
Beta-galactoside …: MIHTNLKKKFSCCVLVFLLFAVICVWKEKKKGSYYDSFKLQTKEFQVLKSLGKLAMGSDSQSVSSSSTQDPHRGRQTLGSLRGLAKAKPEASFQVWNKDSSSKNLIPRLQKIWKNYLSMNKYKVSYKGPGPGIKFSAEALRCHLRDHVNVSMVEVTDFPFNTSEWEGYLPKESIRTKAGPWGRCAVVSSAGSLKSSQLGREIDDHDAVLRFNGAPTANFQQDVGTKTTIRLMNSQLVTTEKRFLKDSLYNEGILIVWDPSVYHSDIPKWYQNPDYNFFNNYKTYRKLHPNQPFYILKPQMPWELWDILQEISPEEIQPNPPSSGMLGIIIMMTLCDQVDIYEFLPSKRKTDVCYYYQKFFDSACTMGAYHPLLYEKNLVKHLNQGTDEDIYLLGKATLPGFRTIHC
notes: recombinant human sialyltransferase, N-glycan specific
B3: FUT2: recombinant fucosyltransferase, α1-2 linked fucose (protein, UniProt Q10981 1-343, looked up)
Galactoside …: MLVVQMPFSFPMAHFILFVFTVSTIFHVQQRLAKIQAMWELPVQIPVLASTSKALGPSQLRGMWTINAIGRLGNQMGEYATLYALAKMNGRPAFIPAQMHSTLAPIFRITLPVLHSATASRIPWQNYHLNDWMEEEYRHIPGEYVRFTGYPCSWTFYHHLRQEILQEFTLHDHVREEAQKFLRGLQVNGSRPGTFVGVHVRRGDYVHVMPKVWKGVVADRRYLQQALDWFRARYSSLIFVVTSNGMAWCRENIDTSHGDVVFAGDGIEGSPAKDFALLTQCNHTIMTIGTFGIWAAYLTGGDTIYLANYTLPDSPFLKIFKPEAAFLPEWTGIAADLSPLLKH
B4: FUT9: recombinant α-3 fucosyltransferase strictly active on lactosamine (protein, UniProt Q9Y231 1-359, looked up)
4-galactosyl-N-acetylglucosami …: T1 sequence (Q9Y231 1-359)

What was measured:
[1] = target: T1, FUT9; assay: Fluorescent labeling with fluorophore-conjugated fucose by FUT9; assay type: biochemical; conditions: 0.3 μg FUT9, 0.2 nmol donor, 30 μl, 37° C., FIG. 17
Description: (§1) FIG. 9A-FIG. 9B show exemplary results of probing substrate glycans of various fucosyltransferases on fetuin and asialofetuin. FIG. 9A. Probing substrate glycans of fucosyltransferases with guanosine 5′-diphosphate activated Cy5 conjugated fucose (GDP-Cy5-Fuc). […] FUT9 labeled itself (indicated by an arrow in the gel). FIG. 9B. Tolerance of Alexa-Fluor®555 (555), Alexa-Fluor®488 (488), and Cy5 by the indicated fucosyltransferases. All reactions were incubated at 37° C. for 30 minutes and then separated on SDS-PAGE and imaged with silver staining (upper panels) and fluorescent imager (lower panels). M, molecular marker.
FIG. 10A-FIG. 10D show exemplary results of probing core-6 fucosylation on antibodies by FUT8 incorporation of fluorophores. FIG. 10A. Results of probing substrate glycans of FUT8 (F8) and FUT9 (F9) on Cantuzumab, an anti-Muc1 therapeutic antibody, and NIST reference mAb 8671 using guanosine 5′-diphosphate activated Alexa-Fluor®555 conjugated fucose (GDP-AF555-Fuc) (555), GDP-Cy5-fucose (Cy5), and guanosine 5′-diphosphate activated Alexa-Fluor®488 conjugated fucose (GDP-AF488-Fuc) (488) as donor substrates. Cantuzumab was expressed in FUT8 knockout cells and is devoid of core-6 fucose. Molecular marker (MM) is a prestained Western molecular marker (Bio-Rad Laboratories, Hercules, CA). […] The product of each reaction was separated using SDS-PAGE and imaged with trichloroethanol (TCE) staining (upper panel) and fluorescent imager (lower panel). Labeling on the light chains of the antibodies by Alexa-Fluor®555 is likely the result of non-specific staining due to the use of unpurified GDP-AF555-Fuc that contained free Alexa-Fluor®555. FIG. 10B. […] FIG. 10C. […] FIG. 10D. Schematics of the glycan structures analyzed in FIG. 10B and FIG. 10C.
Mouse IgG (R&D Systems, Minneapolis, MN) was digested with Endo S thoroughly and labeled with 0.3 μg of FUT9 and 0.2 nmol of GDP-Cy5-Fuc in 30 μl at 37° C. for the indicated time points. The glycans were also pretreated with B4GalT2 for 5 minutes at 37° C. and then labeled in the same way. The reactions were separated on 15% SDS PAGE. B4GalT2 pretreatment converted all G1′ to G2′. Maximal labeling on G1′ and G2′ were achieved around 30 minutes. […] The heavy chain (HC) and light chain (LC) were visible in the TCE image. M, Western blot marker (Bio-Rad Laboratories, Hercules, CA).
(§2) For a typical labeling reaction, 1 μg to 5 μg target protein was mixed with 0.2 nmol GDP-f-Fuc and 0.2 μg of a fucosyltransferase in 30 μL buffer of 25 mM Tris pH 7.5, 10 mM MnCl2. The mixture was incubated at 37° C. for 30 minutes. The reaction was then separated by sodium dodecyl sulfate—polyacrylamide gel electrophoresis (SDS-PAGE) and the gel was directly imaged using a fluorescent imager FluorChem M ProteinSimple, Bio-Techne, Minneapolis, MN), followed by imaging with traditional protein imaging methods such as silver staining or trichloroethanol (TCE) staining.
The four enzymes tolerated the three fluorophores to different levels.

[2] = test system: fetal bovine fetuin and asialofetuin; assay: Labeling of fetuin and asialofetuin by sialyltransferases with CMP-f-SA; assay type: biochemical; conditions: CMP-f-SA donors, FIG. 2
[3] = test system: asialofetuin; assay: Asialofetuin labeling with variable amounts of ST3Gal1 or ST6Gal1 (FIG. 7); assay type: biochemical, bovine; conditions: 5 μg asialofetuin, 0.2 nmol CMP-Cy5-SA, 30 μL, 37° C., 30 minutes
[4] = Enzymatic synthesis of Le^x and sLe^x by glycan gel electrophoresis, substrate G2; assay type: biochemical; conditions: for Relative activity: normalized to FUT6 on sLe^x synthesis
Description: FIG. 21A. Schematic view of the enzymatic steps for Le^X and sLe^X synthesis on the antibody glycan G0. The glycan short names follow that of FIG. 10. FIG. 21B Kinetic comparison of galactosylation on G0 by B4GalT1, sialyation on G2 by ST3Gal4 and ST6Gal1, and fucosylation on A2[3] by FUT7. The reaction time for B4GalT1 was 10 minutes. The reaction time for ST3Gal4, FUT7 and ST6Gal1 was 5 hours. In each case, the labeling enzyme was subject to a 3-fold serial dilution starting from 1 μg each of B4GalT1, FUT7 and ST6Gal1, and 3 μg ST3Gal4. FIG. 21C. […] Reaction time for both cases was 20 minutes. […] FIG. 21D. […] Reaction time for both cases was 20 minutes.
For a typical labeling reaction, 1 μg to 5 μg target protein was mixed with 0.2 nmol fluorophore-conjugated GDP-fucose and 0.2 μg of a fucosyltransferase in 30μL 25 mM Tris pH 7.5, 10 mM MnCl2. The mixture was incubated at 37° C. for 30 minutes. […] To release labeled glycans from a glycoprotein, the sample was first denatured by heating at 95° C. for two minutes in the presence of 0.5% SDS and 80 mM β-mercaptoethanol and then renatured with 1% Triton X-100, and finally treated with PNGase F at 10:1 mass ratio at 37° C. for 20 minutes. To release glycans from antibody, a sample was directly treated with Endo S at 10:1 mass ratio at 37° C. for 20 minutes. All samples were separated by sodium dodecyl sulfate—polyacrylamide gel electrophoresis (SDS-PAGE) at […]. For separating labeled glycoproteins and antibodies, 4-20% gradient SDS gel was used. For separating labeled free glycans, 15% or 17% gel was used. After separation, all gels were imaged using a FluorChem M imager (ProteinSimple, Bio-Techne, Minneapolis, MN). For glycoproteins samples, the gel was also imaged with traditional methods such as silver staining or trichloroethanol (TCE) staining.
For sLe^x synthesis, G0 was first converted to G2 by B4GalT1, then converted to A2[3] by ST3Gal4, and finally converted to A2[3]F2 (carrier of sLe^x) by FUT7 (FIG. 21A). During these steps, different amounts of enzymes, and multiple reaction times were applied to reveal the intermediate products.
Intermediate products are signs for the progress of each enzymatic step.

[5] = test system: fetal bovine fetuin and asialofetuin; assay: Labeling of fetuin and asialofetuin by fucosyltransferases with GDP-Cy5-Fuc; assay type: biochemical; conditions: GDP-Cy5-Fuc donor, FIG. 9A
Description: as §1, §2
The labeled samples were then separated on SDS-PAGE, followed by traditional protein gel imaging and fluorescent imaging.

Molecule | Which of fetuin and asialofetuin the sialyltransferase labeled [2] | Enzyme amount achieving maximal labeling of asialofetuin [3] [µg] | Enzyme amount showing clear visible labeling on asialofetuin [3] [µg] | Which of fetuin and asialofetuin the fucosyltransferase labeled [5] | further results
guanosine 5′-diphosphate activated Cy5 conjugated fucose [GDP-Cy5-Fuc] | – | – | – | – | Time to maximal labeling of B4GalT2 by FUT9 [1]: 20 min; Time to maximal labeling on G1′ and G2′ by FUT9 ([1]; Endo S digested mouse IgG): around 30 minutes
B1 | only labeled asialofetuin | 0.5 | 0.063 | – | –
B2 | only labeled asialofetuin | 0.25 | 0.016 | – | Time for the complete conversion of G2 to A2[6] ([4]; FIG. 21B): 5 h; Activity based on reaction completion ([4]; substrate G2, completed product A2[6]): 0.025 pmol/min/µg; Relative activity ([4]; substrate G2, product A2[6]): 0.19
B3 | – | – | – | labeled asialofetuin | –
B4 | – | – | – | labeled asialofetuin | Activity based on reaction completion ([4]; substrate G2, completed product Le^x): 2.3 pmol/min/µg; Relative activity ([4]; substrate G2, product Le^x): 17
